Results taken from patent publication US20220031650A1 (PDS BIOTECHNOLOGY, published 2022).

T1: H-2D^b molecules on RMA-S cells (mouse, UniProt P01899 25-362; P01887 21-119)
T1 construct: whole, on cells; also called MHC class I
T1 sequence (MHC heavy, looked up): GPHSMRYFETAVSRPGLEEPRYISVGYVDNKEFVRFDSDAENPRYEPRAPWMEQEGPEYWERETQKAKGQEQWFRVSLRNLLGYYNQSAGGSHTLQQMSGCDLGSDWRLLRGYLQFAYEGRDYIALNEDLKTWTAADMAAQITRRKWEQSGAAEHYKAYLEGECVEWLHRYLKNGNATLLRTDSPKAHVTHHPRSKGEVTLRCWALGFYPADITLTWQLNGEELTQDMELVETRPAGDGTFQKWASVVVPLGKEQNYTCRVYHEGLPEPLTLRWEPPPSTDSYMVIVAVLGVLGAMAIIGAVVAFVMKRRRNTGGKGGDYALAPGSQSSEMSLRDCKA
T1 sequence (looked up): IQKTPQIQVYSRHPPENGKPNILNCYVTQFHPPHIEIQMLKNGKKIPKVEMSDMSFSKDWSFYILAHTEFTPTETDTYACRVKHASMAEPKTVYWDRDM

T2: H-2K^b molecules on RMA-S cells (mouse, UniProt P01901 22-369; P01887 21-119)
T2 construct: whole, on cells
T2 sequence (MHC heavy): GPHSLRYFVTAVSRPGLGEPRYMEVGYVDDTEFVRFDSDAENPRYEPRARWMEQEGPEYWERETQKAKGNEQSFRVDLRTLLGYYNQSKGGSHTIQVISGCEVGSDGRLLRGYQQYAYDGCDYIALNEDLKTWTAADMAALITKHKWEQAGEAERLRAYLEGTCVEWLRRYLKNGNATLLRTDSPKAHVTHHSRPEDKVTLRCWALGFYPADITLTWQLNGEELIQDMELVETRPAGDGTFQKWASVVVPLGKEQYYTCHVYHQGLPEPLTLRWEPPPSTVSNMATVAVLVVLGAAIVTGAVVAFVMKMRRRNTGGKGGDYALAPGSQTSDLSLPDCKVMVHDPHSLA
T2 sequence: T1 sequence (looked up)

B1: native E7 peptide (HPV 16 E7 protein, amino acid 49-57, H-2D^b restricted CTL epitope) (peptide)
peptide: RAHYNIVTF
notes: Synthetic free peptide, added at 10 uM to RMA-S cells; also called E7 antigen
B2: KSS-E7 peptide (KSS (lysine-serine-serine)-elongated E7 peptide without the lipid chain) (peptide)
peptide: KSSRAHYNIVTF
notes: Not lipidated; added at 10 uM to RMA-S cells; also called KSS-elongated E7 peptide

Tests used:
[1] = biological target: T1, H-2D^b molecules on RMA-S cells; assay: RMA-S MHC class I stabilisation assay, 10 µM peptide, flow cytometry with anti-H-2D^b antibody, medium control
Description: We evaluated the MHC class I binding affinity of native and KSS-elongated E7 peptides. RMA-S cells, a mouse lymphoma cell line at a concentration of 5×10⁵ cells/ml were incubated overnight at 27° C. with native E7 or KSS-E7 peptide (10 μM). Cells incubated with medium were used as a control. Cells were then incubated for 2 h at 37° C. After washes, cells were stained with fluorescently conjugated monoclonal antibodies against H-2D^b or H-2K^b molecules on the cell surface prior to flow cytometry analysis.

[2] = biological target: T2, H-2K^b molecules on RMA-S cells; assay: RMA-S MHC class I stabilisation assay, flow cytometry with anti-H-2K^b antibody

Row | Binder | fold up-regulation of H-2D^b molecules on RMA-S cells compared to the control [1] [fold] | binding result [2] | fold increase in the mean fluorescence (H-2D^b on RMA-S cells) [1] [fold]
1 | B1 | 4 | no binding (tested: 10 µM) | –
2 | B2 | – | no binding (tested: 10 µM) | 8
